From patent publication US20160347840A1 (Janssen / Centocor, published 2016) come the findings set out here.

For assay [1], the target named is T1, chimpanzee PSMA extracellular domain (PSMW8), 6His and Avi tag (chimpanzee, UniProt Q04609 44-750 (human entry), biotinylated in bead-based selections and the ELISA screen).
T1 construct: Cloned along with a 6His and Avi tag; Buffer with ZnCl2 to stabilise PSMA dimerisation; also called pan 229
T1 chain: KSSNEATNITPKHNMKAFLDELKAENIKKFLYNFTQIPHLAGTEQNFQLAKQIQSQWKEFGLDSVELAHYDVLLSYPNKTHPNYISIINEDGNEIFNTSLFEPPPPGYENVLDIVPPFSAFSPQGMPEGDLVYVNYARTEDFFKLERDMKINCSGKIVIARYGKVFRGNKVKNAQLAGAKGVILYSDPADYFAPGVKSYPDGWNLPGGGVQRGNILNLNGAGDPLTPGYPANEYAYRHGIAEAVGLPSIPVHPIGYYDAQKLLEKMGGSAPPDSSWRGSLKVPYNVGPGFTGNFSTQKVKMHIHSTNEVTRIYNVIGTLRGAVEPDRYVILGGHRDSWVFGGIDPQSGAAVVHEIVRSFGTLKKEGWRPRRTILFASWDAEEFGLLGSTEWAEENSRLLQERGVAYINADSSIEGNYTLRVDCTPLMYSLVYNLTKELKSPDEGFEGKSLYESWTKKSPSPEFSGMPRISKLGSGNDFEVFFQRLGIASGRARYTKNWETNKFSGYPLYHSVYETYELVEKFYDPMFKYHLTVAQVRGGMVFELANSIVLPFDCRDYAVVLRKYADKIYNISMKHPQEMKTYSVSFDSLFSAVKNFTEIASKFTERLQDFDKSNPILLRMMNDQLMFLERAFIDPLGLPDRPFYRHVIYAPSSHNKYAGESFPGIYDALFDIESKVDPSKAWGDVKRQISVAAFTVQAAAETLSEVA
The assay can be described thus: hit from CIS-display panning and ELISA screen on PSMA of this species (column Antigen species). A general note: An ELISA detects its analyte on a solid surface through an enzyme-linked reagent.

Assay [2] has as its target T2, human PSMA on tumor cells (LNCaP, MDA-PCA-2B, VCAP, 22Rv1) (human, UniProt Q04609 1-750). The experiment in a line: cell-based or functional assay.
Assay [3] deals with T3, isolated cynomolgus PSMA (cynoPSMA) extracellular domain, Fc removed (cynomolgus, UniProt Q04609 44-750 (human entry), N-linked glycans seen at Asn-76, -121, -140, -195, -459, -476, -613 and -638 (numbering of SEQ ID NO: 141)).
T3 construct: Expressed in GnTI- cells as a C-terminal fusion to huIgG1 Fc; the ECD starts at residue 44 of that entry; the structure includes residues 57-750; also called cynomolgous PSMA dimer
T3 chain: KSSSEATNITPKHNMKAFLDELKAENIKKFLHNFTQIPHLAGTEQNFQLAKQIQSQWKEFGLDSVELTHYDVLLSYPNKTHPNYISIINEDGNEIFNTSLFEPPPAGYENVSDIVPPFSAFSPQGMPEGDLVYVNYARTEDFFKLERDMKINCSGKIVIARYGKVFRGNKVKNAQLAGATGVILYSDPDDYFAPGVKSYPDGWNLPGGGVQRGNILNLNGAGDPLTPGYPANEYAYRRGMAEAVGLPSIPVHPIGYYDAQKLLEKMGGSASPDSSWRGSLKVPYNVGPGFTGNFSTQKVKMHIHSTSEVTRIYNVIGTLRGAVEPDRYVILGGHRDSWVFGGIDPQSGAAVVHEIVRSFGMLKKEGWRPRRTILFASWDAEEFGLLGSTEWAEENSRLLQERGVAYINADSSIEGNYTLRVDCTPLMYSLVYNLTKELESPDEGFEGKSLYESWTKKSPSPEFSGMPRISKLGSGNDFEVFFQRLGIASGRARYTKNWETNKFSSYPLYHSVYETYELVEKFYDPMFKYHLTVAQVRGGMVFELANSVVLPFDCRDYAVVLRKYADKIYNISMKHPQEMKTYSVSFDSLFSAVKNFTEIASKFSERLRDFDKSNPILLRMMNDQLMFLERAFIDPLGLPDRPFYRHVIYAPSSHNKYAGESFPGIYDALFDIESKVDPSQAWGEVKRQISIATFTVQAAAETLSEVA
The assay can be described thus: X-ray crystal structure of the complex. Here is the method: The H10 FN3 Domain/cynoPSMA complex was prepared by mixing cynoPSMA with H10 FN3 domain at a molar ratio of 1:3 (excess FN3 domain) while dialyzing for 48 h at 4° C. against 20 mM Hepes pH 7.0, 0.5 mM ZnCl₂. The complex was then eluted from a monoS column with a gradient of 48-68 mM NaCl, 20 mM Hepes pH 7.5, 10% glycerol and concentrated to 3.4 mg/mL. Crystals suitable for X-diffraction were obtained from 25% PEG 3 kDa, 0.2 M NH₄Cl, 0.1 M Na Acetate pH 4.5 using the sitting drop vapor-diffusion method at 20° C.
For X-ray data collection, the crystal was soaked for a few seconds in a cryo-protectant solution containing mother liquor supplemented with 20% glycerol, and then frozen in liquid nitrogen. X-ray diffraction data were collected with a Dectris Pilatus 6M Pixel Array detector at the beamline 17-ID of the Advanced Photon Source (APS) at Argonne National Laboratory. Diffraction data were processed with the program HKL2000 (Otwinowski & Minor, 1997).

Assay [4] deals with T2, human PSMA on tumor cells (LNCaP, …). The assay can be described thus: cell-based or functional assay. The source holds these as a separate data set.
In assay [5] the target is T4, cynomolgus CD3E on primary cynomolgus CD4+ T cells (cynomolgus, UniProt Q95LI5 22-198).
T4 construct: whole, on cells; On the cells CD3E stands in the CD3/T cell receptor complex
T4 sequence (Q95LI5 22-198): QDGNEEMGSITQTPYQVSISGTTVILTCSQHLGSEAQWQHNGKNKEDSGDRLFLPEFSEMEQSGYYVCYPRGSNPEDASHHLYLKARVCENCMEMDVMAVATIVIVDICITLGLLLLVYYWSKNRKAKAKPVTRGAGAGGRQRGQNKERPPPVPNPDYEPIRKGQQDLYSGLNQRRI
The experiment in a line: stated for the flow cytometry assay on primary cynomolgus CD4+ T cells. Background: A flow cytometer gives signals particle by particle.

The target of assay [6] is T5, cell-surface CD3E on primary human T cells (human, UniProt P07766 23-207).
T5 construct: whole, on cells; On the cells CD3E stands in the CD3/T cell receptor complex; also called human CD3
T5 sequence (P07766 23-207): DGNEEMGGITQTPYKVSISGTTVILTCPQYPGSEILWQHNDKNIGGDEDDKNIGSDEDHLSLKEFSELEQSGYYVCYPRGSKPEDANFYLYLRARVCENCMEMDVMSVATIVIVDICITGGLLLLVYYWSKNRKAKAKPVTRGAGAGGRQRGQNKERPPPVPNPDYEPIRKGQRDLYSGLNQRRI
The experiment in a line: flow cytometry on primary human T cells, positive control. As to the method: The resulting panel of anti-CD3 antibodies was tested for binding against cell-surface CD3E on primary human T cells. To do this, binding of antibodies from expression supernatants was visualized using a polyclonal anti-human secondary antibody and analyzed by flow cytometry. Briefly, binding of anti-CD3 antibodies to cell-surface CD3E was assessed by flow cytometry using primary Human T lymphocytes purified by negative selection (Biological Specialty, Colmar, USA). Expression supernatants or purified antibodies were normalized to 10 μg/ml in media or FACS buffer (BD BioSciences), respectively. 2×10⁵ cells were aliquoted into wells of a 96 well round-bottomed plate (CoStar) for labeling. Antibodies in expression supernatant were added to cells and incubated for 45 min at 4° C. Following centrifugation at 1300 rpm for 3 min and removal of supernatant, 50 μL of anti-human IgG (H+L) Alexa Fluor 647 secondary antibody (Life technologies Inc.) was incubated with the cells at a final concentration of 10 μg/mL for 30 min at 4° C. away from direct light. Following washing and resuspension in 30 μL FACs buffer (BD BioSciences). Sample collection was performed on an Intellicyt HTFC system using ForeCyt software. […] Graphs were generated in GraphPad Prism version 5 using mean fluorescence intensity values. […]

Assay [7] has as its target T4, cynomolgus CD3E on primary cynomolgus …. The assay can be described thus: flow cytometry on primary cynomolgus CD4+ T cells. As to the method: (§1) The resulting panel of anti-CD3 antibodies was tested for binding against cell-surface CD3E on primary human T cells. To do this, binding of antibodies from expression supernatants was visualized using a polyclonal anti-human secondary antibody and analyzed by flow cytometry. Briefly, binding of anti-CD3 antibodies to cell-surface CD3E was assessed by flow cytometry using primary Human T lymphocytes purified by negative selection (Biological Specialty, Colmar, USA). Expression supernatants or purified antibodies were normalized to 10 μg/ml in media or FACS buffer (BD BioSciences), respectively. 2×10⁵ cells were aliquoted into wells of a 96 well round-bottomed plate (CoStar) for labeling. Antibodies in expression supernatant were added to cells and incubated for 45 min at 4° C. Following centrifugation at 1300 rpm for 3 min and removal of supernatant, 50 μL of anti-human IgG (H+L) Alexa Fluor 647 secondary antibody (Life technologies Inc.) was incubated with the cells at a final concentration of 10 μg/mL for 30 min at 4° C. away from direct light. Following washing and resuspension in 30 μL FACs buffer (BD BioSciences). Sample collection was performed on an Intellicyt HTFC system using ForeCyt software. Viable single cells were gated prior to analysis of binding using the green or red fixable live/dead dyes (Life Technologies Inc.) and forward/side scatter area and height parameters, respectively. Graphs were generated in GraphPad Prism version 5 using mean fluorescence intensity values.
Binding analysis of the anti-CD3 hits to primary cynomolgusCD4+ T cells was then tested in order to assess the retention of cross-reactivity. Purified CD4+ T cells from the peripheral blood of cynomolgus monkeys (Zen Bio, Triangle Research Park, USA were used). Assay protocols were similar to those described above. […] This included the strong binders CD3B150, CD3B151 and CD3B154, in which binding was reduced, and several weak binders where binding could no longer be detected over background.

Assay [8] concerns the target T5, cell-surface CD3E on primary human T …. The experiment in a line: flow cytometry on primary human T cells, anti-human IgG Alexa Fluor 647 secondary. As to the method: as §1
Two in-house phage-derived antibodies with the same Fc region as the therapeutic antibodies were used as controls: G11 (HC SEQ ID NO:176, LC SEQ ID NO:177), a non-cyno cross-reactive, agonistic antibody was used as a positive control and CD3B94 (HC-SEQ ID NO:178, LC—SEQ ID NO:179) a non-binder/non-agonistic antibody was used to assess non-specific binding. The commercial SP34 antibody was not used as a comparator in this assay since it is a mouse antibody and the use of a different secondary detection reagent would have prohibited direct comparison with the variants tested.

Numbering of substitutions follows the chain as printed. Names may count otherwise.

T2 sequence (Q04609 whole entry, the tested form may be a part): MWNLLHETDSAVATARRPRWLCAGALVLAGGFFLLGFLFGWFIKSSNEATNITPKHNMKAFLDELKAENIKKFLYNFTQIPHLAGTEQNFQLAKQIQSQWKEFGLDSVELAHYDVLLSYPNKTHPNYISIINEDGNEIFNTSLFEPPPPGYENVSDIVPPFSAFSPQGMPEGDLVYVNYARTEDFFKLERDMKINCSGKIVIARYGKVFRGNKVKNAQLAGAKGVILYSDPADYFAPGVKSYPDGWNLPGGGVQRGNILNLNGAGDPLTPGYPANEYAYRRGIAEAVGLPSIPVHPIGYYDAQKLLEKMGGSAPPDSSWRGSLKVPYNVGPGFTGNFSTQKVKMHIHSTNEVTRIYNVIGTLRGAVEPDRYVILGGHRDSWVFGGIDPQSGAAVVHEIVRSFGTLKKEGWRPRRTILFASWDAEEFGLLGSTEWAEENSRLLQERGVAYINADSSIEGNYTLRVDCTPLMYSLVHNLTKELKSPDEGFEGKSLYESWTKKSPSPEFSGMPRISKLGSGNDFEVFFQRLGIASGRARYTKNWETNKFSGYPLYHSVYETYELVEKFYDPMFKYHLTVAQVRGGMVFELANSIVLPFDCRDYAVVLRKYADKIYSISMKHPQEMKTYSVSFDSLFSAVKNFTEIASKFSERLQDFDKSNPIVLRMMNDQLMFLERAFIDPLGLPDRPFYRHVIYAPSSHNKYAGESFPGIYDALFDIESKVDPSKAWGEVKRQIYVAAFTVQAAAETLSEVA

B1: P233FR9_H10 (designed binder)
chain: LPAPKNLVVSRVTEDSARLSWTAPDAAFDSFAIGYWEWDDDGEAIVLTVPGSERSYDLTGLKPGTEYPVYIAGVKGGQWSFPLSAIFTT
notes: also called H10 FN3 domain; P233FR9_10; not shown: C-terminal poly-histidine tag
As to B1, the binding result in assay [1] is on record as “binds”. For the same molecule, the “LNCaP IC50 (nM), cytotoxicity of the FN3 domain-vcMMAF conjugate (CellTiter-Glo)” value in assay [2] stood at 0.4 nM. In assay [3], the binding result is “binds”. Further, in assay [4], the “LNCaP cells IC50 (nM), cytotoxicity of FN3 domain-drug conjugate” value stood at 0.5 nM; the “MDA-PCA-2B cells IC50 (nM), cytotoxicity of FN3 domain-drug conjugate” value is 5.8 nM; the “VCAP cells IC50 (nM), cytotoxicity of FN3 domain-drug conjugate” value turned out to be 25.9 nM.

B2: G11 (antibody, V domains shown)
VH: EVQLLESGGGLVQPGGSLRLSCAASGFTFSSYGMSWVRQAPGKGLEWVSGINGGGGSKYYADSVKGRFTISRDNSKNTLYLQMNSLRAEDTAVYYCAKTSAQRFDYWGQGTLVTVSS
VL: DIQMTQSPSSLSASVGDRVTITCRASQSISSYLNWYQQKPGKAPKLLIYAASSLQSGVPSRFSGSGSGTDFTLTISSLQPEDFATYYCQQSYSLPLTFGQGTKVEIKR
notes: In-house phage-derived anti-CD3 antibody; non-cyno cross-reactive, agonistic; positive control; also called G11 mAb
For B2, the binding result in assay [5] is reported as “no binding”; in assay [6], “binds”.

B3: CD3B154 (antibody, human IgG1, V domains shown)
VH: EVQLLESGGGLVQPGGSLRLSCAASGFTFNTYAMNWVRQAPGKGLEWVARIRSKYNNYATYYADSVKGRFTISRDNSKNTLYLQMNSLRAEDTAVYYCVKHGNFGNSYVSWFAYWGQGTLVTVSS
VL: QTVVTQEPSLTVSPGGTVTLTCRSSTGAVTTSNYANWVQQKPGQAPRGLIGGTNKRAPGTPARFSGSLLGGKAALTLSGVQPEDEAEYYCALWYSNLWVFGGGTKLTVL
notes: Humanized SP34 variant; human IgG1 constant region with L234A, L235A, F405L; human lambda constant region; also called CDB154
On to B3, for which the binding result in assay [7] and in assay [8] was “binds” in each case.

B4: CD3B151 (antibody, human IgG1, V domains shown)
VH: B3 VH
VL: B3 VL with T2A, V80A
notes: Humanized SP34 variant; human IgG1 constant region with L234A, L235A, F405L; human lambda constant region; also called CDB151
Turning to B4, the binding result in assay [7] and in assay [8] was “binds” throughout.

B5: CD3B150 (antibody, human IgG1, V domains shown)
VH: B3 VH with V99A
VL: B3 VL
notes: Humanized SP34 variant; human IgG1 constant region with L234A, L235A, F405L; human lambda constant region; also called CDB150
In the case of B5, the binding result in assay [7] and in assay [8] was “binds” each time.
